Test results as given in PMC10958106.

Molecular target: AP2 core GST (α2 trunk, β2 trunk and μ2 subunit) (UniProt O94973)
Assay: pull-down; AP2 core GST (or empty GST) bound to glutathione resin, incubated 3 h at 4 °C with extracts of HEK293 cells transfected with the receptor with or without HPV-16 E7; lysis buffer 50 mM HEPES pH 7.4, 150 mM NaCl, 1 mM MgCl2, 1% Triton X-100; Western blot

Sequence of UniProt O94973 (O94973 whole entry, chain 1 of 3): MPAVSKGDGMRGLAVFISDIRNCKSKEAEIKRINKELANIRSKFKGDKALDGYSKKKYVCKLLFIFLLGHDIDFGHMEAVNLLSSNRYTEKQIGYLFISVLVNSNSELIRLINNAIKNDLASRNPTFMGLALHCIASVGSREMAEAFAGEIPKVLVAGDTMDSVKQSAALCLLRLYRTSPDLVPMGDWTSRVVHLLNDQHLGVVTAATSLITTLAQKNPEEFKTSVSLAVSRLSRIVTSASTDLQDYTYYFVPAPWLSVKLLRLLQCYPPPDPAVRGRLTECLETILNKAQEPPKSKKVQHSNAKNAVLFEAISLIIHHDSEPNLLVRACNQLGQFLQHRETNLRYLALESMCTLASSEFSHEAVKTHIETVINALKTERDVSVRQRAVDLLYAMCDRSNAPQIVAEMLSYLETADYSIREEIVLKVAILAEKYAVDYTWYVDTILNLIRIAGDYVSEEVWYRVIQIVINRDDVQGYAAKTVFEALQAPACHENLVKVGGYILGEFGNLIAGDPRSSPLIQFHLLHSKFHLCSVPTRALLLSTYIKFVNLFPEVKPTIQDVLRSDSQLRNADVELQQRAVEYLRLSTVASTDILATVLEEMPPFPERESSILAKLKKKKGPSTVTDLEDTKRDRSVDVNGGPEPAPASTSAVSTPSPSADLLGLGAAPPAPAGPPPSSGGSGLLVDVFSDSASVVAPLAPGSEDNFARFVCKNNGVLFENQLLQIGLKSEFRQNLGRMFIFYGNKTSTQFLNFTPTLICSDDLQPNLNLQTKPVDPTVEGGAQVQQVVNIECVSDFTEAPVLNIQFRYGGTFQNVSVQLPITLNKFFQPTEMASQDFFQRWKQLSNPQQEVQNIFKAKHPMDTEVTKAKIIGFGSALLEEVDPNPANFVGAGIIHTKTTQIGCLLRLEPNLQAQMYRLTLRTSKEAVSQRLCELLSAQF
Sequence of UniProt O94973 (P63010 whole entry, chain 2 of 3, further chain): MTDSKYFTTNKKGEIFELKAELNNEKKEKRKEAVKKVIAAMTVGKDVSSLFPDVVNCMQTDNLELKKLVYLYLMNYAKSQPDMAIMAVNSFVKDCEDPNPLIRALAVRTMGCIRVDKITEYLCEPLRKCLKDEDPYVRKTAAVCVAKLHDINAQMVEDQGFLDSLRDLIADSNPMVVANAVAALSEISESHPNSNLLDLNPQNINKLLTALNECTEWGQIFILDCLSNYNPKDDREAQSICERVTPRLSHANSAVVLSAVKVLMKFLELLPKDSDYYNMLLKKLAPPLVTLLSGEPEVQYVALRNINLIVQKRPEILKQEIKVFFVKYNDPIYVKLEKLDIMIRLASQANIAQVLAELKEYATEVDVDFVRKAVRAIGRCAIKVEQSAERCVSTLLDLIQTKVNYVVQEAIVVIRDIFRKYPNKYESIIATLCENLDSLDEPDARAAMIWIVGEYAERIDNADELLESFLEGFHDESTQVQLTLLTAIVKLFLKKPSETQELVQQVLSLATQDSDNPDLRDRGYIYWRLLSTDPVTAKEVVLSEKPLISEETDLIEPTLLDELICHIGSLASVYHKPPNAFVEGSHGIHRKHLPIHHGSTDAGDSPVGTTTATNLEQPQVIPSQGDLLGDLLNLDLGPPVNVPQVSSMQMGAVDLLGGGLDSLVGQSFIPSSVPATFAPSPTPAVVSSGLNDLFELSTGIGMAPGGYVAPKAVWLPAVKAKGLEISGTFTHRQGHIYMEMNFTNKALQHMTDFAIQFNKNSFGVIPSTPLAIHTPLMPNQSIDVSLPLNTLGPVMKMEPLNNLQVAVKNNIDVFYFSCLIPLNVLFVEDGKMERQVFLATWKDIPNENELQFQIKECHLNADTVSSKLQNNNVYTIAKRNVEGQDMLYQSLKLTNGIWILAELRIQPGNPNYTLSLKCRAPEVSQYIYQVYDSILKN
Sequence of UniProt O94973 (Q96CW1 whole entry, chain 3 of 3, further chain): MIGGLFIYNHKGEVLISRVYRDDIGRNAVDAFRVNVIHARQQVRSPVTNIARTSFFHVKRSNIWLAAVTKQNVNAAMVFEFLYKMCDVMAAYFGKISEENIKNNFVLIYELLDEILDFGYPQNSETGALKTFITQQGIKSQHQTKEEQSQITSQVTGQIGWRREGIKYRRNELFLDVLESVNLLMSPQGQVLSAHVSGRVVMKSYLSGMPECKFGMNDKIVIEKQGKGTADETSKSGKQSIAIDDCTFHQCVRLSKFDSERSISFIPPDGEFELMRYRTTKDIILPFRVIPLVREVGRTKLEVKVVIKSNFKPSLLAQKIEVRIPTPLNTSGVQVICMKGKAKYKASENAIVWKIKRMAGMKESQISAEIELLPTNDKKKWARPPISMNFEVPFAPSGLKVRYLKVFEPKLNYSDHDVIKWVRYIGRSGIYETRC

HPV-16 E7-FLAG/HA (from UniProt P03129 1-98) (natural protein)
percent reduction of the binding of CD109 to the AP2 core in the presence of E7: 50% | percent reduction of the binding of EGFR to the AP2 core in the presence of E7: > 70% | percent reduction of the binding of MET to the AP2 core in the presence of E7: 50%
